Key:
[1] = target: retinoblastoma protein (pRb), endogenous in human cells (human (endogenous in HEK 293T, HeLa)) (UniProt P06400); assay: co-IP; HeLa cells transfected with pORFV119^Flag, harvested 12 h post transfection; reciprocal IP (anti-Flag or anti-pRb), high stringency buffer with 300 mM NaCl; Western blot
[2] = target: retinoblastoma protein (pRb), endogenous in human cells (human (endogenous in HEK 293T, HeLa)) (UniProt P06400); assay: co-IP; HEK 293T cells transfected with pORFV119^Flag, pORFV119^LxGxE-Flag or pORFV113^Flag, harvested 12 h post transfection; reciprocal IP of total protein extracts (anti-Flag, anti-pRb or anti-TRAF2), high stringency buffer with 300 mM NaCl, overnight at 4°C, protein G agarose; Western blot
[3] = target: retinoblastoma protein (pRb), endogenous in ovine OFTu cells (ovine (endogenous in OFTu)); assay: co-IP; OFTu cells infected with Flag-tagged recombinant ORFV (MOI 10), harvested 12 h p.i.; reciprocal IP of total protein extracts (anti-Flag or antibody against the cellular protein), high stringency buffer with 300 mM NaCl, overnight at 4°C, protein G agarose; Western blot
[4] = target: retinoblastoma protein (pRb), endogenous in ovine OFTu cells (ovine (endogenous in OFTu))
[5] = target: ORFV119^Flag expressed by revertant virus OV-IA82-RV119^Flag (orf virus (ORFV) strain OV-IA82); assay: co-IP; OFTu cells infected with Flag-tagged recombinant ORFV (MOI 10), harvested 12 h p.i.; reciprocal IP of total protein extracts (anti-Flag or antibody against the cellular protein), high stringency buffer with 300 mM NaCl, overnight at 4°C, protein G agarose; Western blot
[6] = target: ORFV119^Flag (ORFV119-3xFlag fusion protein expressed from plasmid pORFV119^Flag) (orf virus (ORFV) strain OV-IA82); assay: co-IP; HeLa cells transfected with pORFV119^Flag, harvested 12 h post transfection; reciprocal IP (anti-Flag or anti-pRb), high stringency buffer with 300 mM NaCl; Western blot
[7] = target: ORFV119^Flag (ORFV119-3xFlag fusion protein expressed from plasmid pORFV119^Flag) (orf virus (ORFV) strain OV-IA82); assay: co-IP; HEK 293T cells transfected with pORFV119^Flag, pORFV119^LxGxE-Flag or pORFV113^Flag, harvested 12 h post transfection; reciprocal IP of total protein extracts (anti-Flag, anti-pRb or anti-TRAF2), high stringency buffer with 300 mM NaCl, overnight at 4°C, protein G agarose; Western blot

ORFV119^Flag (ORFV119-3xFlag fusion protein expressed from plasmid pORFV119^Flag) (natural protein)
percentage co-immunoprecipitated [1]: 38.7%
percentage co-immunoprecipitated [2]: 28.4%

ORFV119^Flag expressed by revertant virus OV-IA82-RV119^Flag (natural protein)
percentage co-immunoprecipitated [3]: 18.5%

ORFV119^LxGxE-Flag expressed by revertant virus OV-IA82-RV119^LxGxE-Flag (natural protein)
fold increase of phosphorylated IKKα/β (Ser176/180) in OFTu cells infected with OV-IA82-RV119^LxGxE-Flag relative to OV-IA82, Western blot densitometry, 30 min and 1 h p.i. [4]: 27.4 fold
fold increase of phosphorylated IκBα (Ser32/36) in OFTu cells infected with OV-IA82-RV119^LxGxE-Flag relative to OV-IA82, Western blot densitometry, 30 min and 1 h p.i. [4]: 21.2 fold
fold increase of phosphorylated NF-κB-p65 (Ser536) in OFTu cells infected with OV-IA82-RV119^LxGxE-Flag relative to OV-IA82, Western blot densitometry, 30 min and 1 h p.i. [4]: 13.2 fold

retinoblastoma protein (pRb), endogenous in ovine OFTu cells (natural protein)
percentage co-immunoprecipitated [5]: 8.7%

B1: retinoblastoma protein (pRb), endogenous in human cells (natural protein)
chain: MPPKTPRKTAATAAAAAAEPPAPPPPPPPEEDPEQDSGPEDLPLVRLEFEETEEPDFTALCQKLKIPDHVRERAWLTWEKVSSVDGVLGGYIQKKKELWGICIFIAAVDLDEMSFTFTELQKNIEISVHKFFNLLKEIDTSTKVDNAMSRLLKKYDVLFALFSKLERTCELIYLTQPSSSISTEINSALVLKVSWITFLLAKGEVLQMEDDLVISFQLMLCVLDYFIKLSPPMLLKEPYKTAVIPINGSPRTPRRGQNRSARIAKQLENDTRIIEVLCKEHECNIDEVKNVYFKNFIPFMNSLGLVTSNGLPEVENLSKRYEEIYLKNKDLDARLFLDHDKTLQTDSIDSFETQRTPRKSNLDEEVNVIPPHTPVRTVMNTIQQLMMILNSASDQPSENLISYFNNCTVNPKESILKRVKDIGYIFKEKFAKAVGQGCVEIGSQRYKLGVRLYYRVMESMLKSEEERLSIQNFSKLLNDNIFHMSLLACALEVVMATYSRSTSQNLDSGTDLSFPWILNVLNLKAFDFYKVIESFIKAEGNLTREMIKHLERCEHRIMESLAWLSDSPLFDLIKQSKDREGPTDHLESACPLNLPLQNNHTAADMYLSPVRSPKKKGSTTRVNSTANAETQATSAFQTQKPLKSTSLSLFYKKVYRLAYLRLNTLCERLLSEHPELEHIIWTLFQHTLQNEYELMRDRHLDQIMMCSMYGICKVKNIDLKFKIIVTAYKDLPHAVQETFKRVLIKEEEYDSIIVFYNSVFMQRLKTNILQYASTRPPTLSPIPHIPRSPYKFPSSPLRIPGGNIYISPLKSPYKISEGLPTPTKMTPRSRILVSIGESFGTSEKFQKINQMVCNSDRVLKRSAEGSNPPKPLKKLRFDIEGSDEADGSKHLPGESKFQQKLAEMTSTRTRMQKQKMNDSMDTSNKEEK
percentage co-immunoprecipitated [6]: 21.5%
percentage co-immunoprecipitated [7]: 16.7%
